According to the DeepSol protein solubility set:

Assay: soluble on expression in E. coli; label from the status in PepcDB or PDB records

Soluble on expression in E. coli, soluble:
MAHHHHHHMSPVLVPTACEDWSLNIDDESAKRFWWNNTYSITLWEETLNIEQQAEKITDGDVWSKFIDLQLRCAFKICSICHSPEGNADMKICCYCGNTVHENCSEPAAPEQIMWKPANLAYVEHMRACFQCQAVNYKEPLAPQSPSEWDNARRAAKRALTISDEYPPATVERIQKLLQRAETTSNDAVLLSELKSLVQSYFQSPQSLQFLRKERVASKGGGIGVVAARKIPAFSIIGVYPGYLDFMSGEQAKCGRPVPKYALMEYNCANYFNEVFVELQTTFTPFINEPNVDEKSNCAWIQEPHRKNGRLSVICVRDIQEGEELTIGYGPIYPRTYPYCYDAYACHQIEGHTTHPCYSLWHWPTLQEADARFVCHIGYIERDDCYVLWKNET
MQADPAIRRFAKKRNKRVDRMILDSNYMHTSIDRYFPNESKRRGRPDIIYLLLEMTQESILNHKNQLRTYVHTRNNQVIRISPITRMPKSYNRFIGLFEDLFEKRIITNNGKELLSMEESSLGDLINSIRRDRTILLHPKGEMRKPSEFISNANILIVIGGFSEGDFISDTSFINERYAIFDQELTIWSVANEMVANYERAVGLTLEHHHHHH
PVNQVQSSVSWPQNGSLNSVSAPLMSYTPISFDAKIPVASVDKLRKDQDLILGTLPANSEDAGARGLFVRANDDGLQITSHGELVLDLSKRELAQLPADATIAISATEDETTAGIEGDDSTTETVERDVRPIIMGIYTELESNAAADLLNAGLNAHVEINSRFTSSPTLAKYAS
MPIVYYDGNCIYCYNYVIWLIQHDLPRNYQFATLKGEVGQQFFKQHPEAANKNSVILQKGDCIYFESQAIIKLITALPNRTKLLGVGLWLVPKPVRNFGYRMFANNRNRMWKTTWHQPNDYEKSFFLDDNAKVKLTDLEHHHHHH

Soluble on expression in E. coli, not soluble:
MKSDWSTDFFHQSQTPNPYPPIVQQQQQPPHTSSSFFNTNHQLNSHYSSPIHQPPTSLHQPIPMMQNQFKASPPQSDQETAPTTPGSGSGGQMKGERCVGCGSESAIRVHYGASSCHGCKAFFRRSVFEGRVYMCSADNHCDITNESRNRCRACRLRNCLEGGMNPKHVREERSKIERMPGNTCTVSAANGVSHSSSAASASPEHKFSFSLSTIAPSTSTGSFSSGSQPAPIESTNSSGSEAEVLDRKLIQENQLTLFMVALEKQTEQLTDDDVKDNDVMGAWSRDITLTFGLQHPQMVIKRLPLKYSCDRIMEAADLYLSWYRSFVFAADWAMGIPEFRVLPLADQTTLFKQNFMAFGWITFAYKCFELKQHLTGMPLGNGAYIPYNDEDQKKLPERWAQTYGVVCRKLIDLIVKAMIELQITEEEYCLIKTISLFQQDCILSEAGQGICSRMRDRLLDALSAHIEKRYPYHTTSQRMTRALKISLMLPSFSHIGQVESTLITQLTAADLHQLSGVPMEICTAQTTL
MEVDTASSRHSTVLKRKATDSINEILNYGQSSTSPQKRCKKAASLHKYRDMETYHKIIKTYKAPTWYGCAVSPRDLADYGWACVKKDCVKCIECEQYLSTVLPNICKVSFNVYNSSLQDIHEKMTTAHRTTCKLRCGAPPFRIVEPTAKEVMDGIQRRLSDSKKIIDEDLKADIPSDVNLPKIEGVPEQLIYVAALGWHVSMPKRGSLLFGCDNCARELAIRCGNKFDPIHNHERWCPRIEMDDHGEPSWQSDLNTVLNTKNHVTNRYTGSSIFKEAYAARRLLDSSLSTIITPNYI
MGSDKIHHHHHHMLRFVMNDDQQSCLVSRLSRFVALTEAECAFIAEMEKDEHERRKGRPVVQVGDPTEGIMVLKSGWAVVKADSSDGRSQILRVYLPGEVMGLAEIGSSHANHRIIMQTDGKICPFPRAGLAPLYSDYPRLGALLTAVGSLDQIALRHHASSLGAMDATGRLKFWLLQLRSRLEVANVGLGNRFRVPFSQVEIGQAVGLTSIYVNKLLRRFMDDGDLEIERPYFRLLNREQWERDCEYVNPFVDMDTSWFPPAYPEIHDSAP
MSLENIEKIEVRGIRASNKANINEKRFSNAVVDAVTAEDIGKFPDSDVGQALGRVPGVTVGRTFGQGSSVSIRGTDPLMTLTTLNGQNVASTGWYDQMNVDRSFNYSMLPSELIGGMEVYKSTQANLVEGGIGGTVIVKTRKPLDMDANSVFASVKGEYGSVNEDVAPELSGLYSWKNDDETFGVLLAGSYIDREYLRTGTEADLDWGGRSSVQPSSFLQEQERTALDATVQFRPTDNLEFGAHVLSLKLGADSIGANMYIETDTNWGEGASHCKQFNAAGVCTLSVTPESDPSNVFFQNWARKGEMTSDTFELNADYKGDGFAISGVAGKTKAEGGTQMSANFGYGWWGDKFGQVKWAGTVDATGKQIDINGRDMGFTQDQLDTTVGTSTWTGIKGPNSDEETYLQLDVDFDLDFGVINKFETGVRYTQHEFEKSEYRAIYDPAKKNEFKTSDLYSGTMKLGYDGWTIPKADLDAMINATESLVDQFAYSRSAYGLIEEDNFSMYGMFSFDGEGFRGNFGLRYIQTDVTSSGHIIDNSPADILGVNQGWSEEIHSISDSYSDVLPSFNISFDLAPDLILRMSAGQAITRPNYDNLFLSTSTGYPDDRRGNEEITYGNPGLKPMKSSQADLSLEYYYGDGNLVSATYFIKDISNFIVATTQYNQQIGVVNNDLETPADNWTVNNYENAGGGEIDGIELQLNHAFENGFGVNANYTYADGTAPAEVYTDNIGMFTESSKHSANLVGYWENDDFSARAAYNWRSEYMVREYGKYYGNRMHDAFGTLDVTLGWNVTEAIALRLEIVNLTAEDDVQYGAAGVGTEVKPALQDDFPAWSFKGETTYKLGASFVFEGHHHHHH
MDWSHYRFRSLWALPAPPARVYAALERVEDYPRWWPQVREVTRLDEDCGVIRIRSLLPYDMTFTARDVRHDTAAGILEITMTGDIDGWARWTVTAGGPGTLARYDQEVDVRKPLLRRFAVPGRPVFRANHALMMRAGQRGLLAHLDGLEHHHHHH
MRVELFNPSIKKIIVKLSQLKGLWIVQLNLSKNRLSEKKFTDLAVLLSMLKAFGVTYLNLHFNNLGQKTGTELVALFKILKDSGISRLSLSANELYQKTGTELATLLTALSDSDIIQLDLSCNWLGQRQDAELIELFKAWSSTPIIDLDLTNNDLGKKSGIVLSEMFRALKVSSISHLGLRNNDLYQRTGAEFSSLLSAIKDSPVTHLDLSDNGLHLMVAAAFETLFDALKDSSVTHLNLCRNGIGHLDMFQMTAMFCSLQCTGVTHLDLGENSLELMTAEELAAIFQVFKDSRLIHLGLNDSYLNNRTTEDLHLIFNALPANIATIKLSLEELTEMSSEQRQTIQRRFPRAEQVILVNNMEGRELNPSLSLGDANVYRRLGFVGVSPLSLAGLASFFVASNNLRFAREVQKLLPDEVTERIVKNILG
MIGVTSCISGDGKSFCSHNLARIYAISGKKTLLIRGDMRKAFNAPANLIPQGSMGLSQHLIGMATIDQIIHKGEIENLYQIIPGPVPPNASELVASQKMEEFIRIMKDKFEVVIMDSPPVGLVSDYMSVIKHIDANLYIVRYDYTPKETLEAIKDLKNKYPAQSHSIIFN
MGSDKIHHHHHHMVTLVRQVEIQPYQPKYAQAVSELFHLCVHNIEHERYSQAQLNAWSKAPRSAKHWHLRLSRSQAWIILVTSTESLSKICVGFINVETDYYHRGYIDSFYIHPDWQRQGVGGRVYCELEQWARGQGYASLSVDASYLSKGLFTQLGFVQIQRNYQQKLGQVLTSFYMTKKL
MGSDKIHHHHHHVYRKIKAQDLRPGMYVVDVGLSWLENPYLYMTEGVLADEEAVGRVLSEGYEEAVIDLRRCLEGSVPDDLAELEPLTDAEHVSRAVSATADSPVSAVAQRVPVAQEMLAAKAIYSESITFVRGFMEGAREGRPVDLKAAEPLVEDIIQSVSRNAGALIGFAKLRAYDLYTYTHSLNVSLLAVAFGKYLGLDTVALRQIGLAGLFHDLGKALIPDFILNCPGRLTPEEFSVMKRHPVLGRDVLPGGGRIPDMVLEGMLQHHEKFNGTGYPAGLKGDAISEAGRIIAVVDVYDALTSKRPYKNAMLPNKALSILYSMAGEEFYPGYVEHFIKCIGIYPVGQIVRLNTGQVGVVSATDPAVPLRPEVIVVRDPLGRPAPPRLIRLADVISVSVTETLEAAHAGIDAARVLQDGAAS
MDSGINNISRFRIDHSFHKLHYAMHSAHSHTYYELFYMMHGNCTISIDNRLFTLSEGNIIFIPANSVHRTSYIGELVPERTYIEFSKDYIETISQTLGKNWAEHNLWGHILYIEKEKREKIDFLFREIQKEYDIVDGYSDCCIRQLFQYLIINLIRLDRNTKDIKEFITNSDNKINQNMIIAAKYIAENFKNDITLKDVASHLNLNPSYFSSKFKAFNNIGFAEYLRNIRVNHAEWYLIETDLSLSDIASECGFCNSNYFGDTFKLVNGISPSEFRKNNKPKKAEN
